For 94 variants, protein stability index results are on record in the supplement of paper PMC10567573.

The chains are these.
B1: ZNF649 (parent)
chain: EHERAHRGEKPHGCSLCGKAFYKR
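Note: lentivirally expressed fusions sorted by FACS into six bins by GFP to DsRed ratio, PSI derived from sequencing read proportions per bin multiplied by bin number.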

In the data set the parent is B1. The data set is described as follows: protein stability index of a GFP-peptide fusion (GPS, HEK-293T) (PSI 1-6); higher = more stable. The conditions noted are these: c terminus: a fixed tail appended.
As for EHERFHRGEKPHGCSLCGKAFYKR [A5F], the protein stability index is 2.8.

For the variant EHERRHRGEKPHGCSLCGKAFYKR [A5R], the protein stability index worked out at 2.76.

Turning to EHERHHRGEKPHGCSLCGKAFYKR [A5H], the protein stability index was 2.23.

Regarding EHERGHRGEKPHGCSLCGKAFYKR [A5G], the protein stability index is 1.52.

As for EHERTHRGEKPHGCSLCGKAFYKR [A5T], the protein stability index stood at 3.23.

Regarding EHERIHRGEKPHGCSLCGKAFYKR [A5I], the protein stability index is 1.34.

Regarding EHERDHRGEKPHGCSLCGKAFYKR [A5D], the protein stability index was 1.88.

In the case of EHERVHRGEKPHGCSLCGKAFYKR [A5V], the protein stability index was 1.62.

EHERYHRGEKPHGCSLCGKAFYKR [A5Y]: the protein stability index came to 2.58.

EHEREHRGEKPHGCSLCGKAFYKR [A5E]: the protein stability index was found to be 1.83.

For the variant EHERWHRGEKPHGCSLCGKAFYKR [A5W], the protein stability index was 1.62.

Take EHERNHRGEKPHGCSLCGKAFYKR [A5N]: the protein stability index turned out to be 2.18.

Regarding EHERLHRGEKPHGCSLCGKAFYKR [A5L], the protein stability index amounted to 2.24.

Consider EHERKHRGEKPHGCSLCGKAFYKR [A5K], for which the protein stability index came out at 1.74.

On to EHERCHRGEKPHGCSLCGKAFYKR [A5C], for which the protein stability index turned out to be 2.8.

As to EHERQHRGEKPHGCSLCGKAFYKR [A5Q], the protein stability index came to 2.42.

Regarding EHERSHRGEKPHGCSLCGKAFYKR [A5S], the protein stability index worked out at 1.09.

For the variant EHERAHRGEKPHECSLCGKAFYKR [G13E], the protein stability index is 2.48.

For the variant EHERAHRGEKPHACSLCGKAFYKR [G13A], the protein stability index worked out at 2.43.

In the case of EHERAHRGEKPHCCSLCGKAFYKR [G13C], the protein stability index came out at 1.9.

With EHERAHRGEKPHICSLCGKAFYKR [G13I], the protein stability index turned out to be 3.07.

With EHERAHRGEKPHTCSLCGKAFYKR [G13T], the protein stability index worked out at 2.42.

For the variant EHERAHRGEKPHLCSLCGKAFYKR [G13L], the protein stability index amounted to 2.2.

On to EHERAHRGEKPHYCSLCGKAFYKR [G13Y], for which the protein stability index was found to be 3.31.

In the case of EHERAHRGEKPHNCSLCGKAFYKR [G13N], the protein stability index was 2.89.

EHERAHRGEKPHFCSLCGKAFYKR [G13F]: the protein stability index was determined as 2.72.

EHERAHRGEKPHVCSLCGKAFYKR [G13V]: the protein stability index was 2.03.

For the variant EHERAHRGEKPHPCSLCGKAFYKR [G13P], the protein stability index was determined as 1.88.

With EHERAHRGEKPHMCSLCGKAFYKR [G13M], the protein stability index stood at 3.08.

For EHERAHRGEKPHSCSLCGKAFYKR [G13S], the protein stability index came out at 1.95.

With EHEYAHRGEKPHGCSLCGKAFYKR [R4Y], the protein stability index stood at 1.5.

On to EHEWAHRGEKPHGCSLCGKAFYKR [R4W], for which the protein stability index is 1.88.

Turning to EHERAHCGEKPHGCSLCGKAFYKR [R7C], the protein stability index was determined as 1.65.

Regarding EHERAHSGEKPHGCSLCGKAFYKR [R7S], the protein stability index came to 2.23.

Take EHERAHKGEKPHGCSLCGKAFYKR [R7K]: the protein stability index was determined as 2.34.

EHERAHWGEKPHGCSLCGKAFYKR [R7W]: the protein stability index came to 2.02.

In the case of EHERAHDGEKPHGCSLCGKAFYKR [R7D], the protein stability index came to 1.98.

EHERAHNGEKPHGCSLCGKAFYKR [R7N]: the protein stability index was 3.32.

On to EHERAHLGEKPHGCSLCGKAFYKR [R7L], for which the protein stability index was determined as 1.48.

Regarding EHERAHFGEKPHGCSLCGKAFYKR [R7F], the protein stability index came to 1.32.

As for EHERAHHGEKPHGCSLCGKAFYKR [R7H], the protein stability index turned out to be 2.31.

For EHERAHPGEKPHGCSLCGKAFYKR [R7P], the protein stability index came out at 2.63.

With EHERAHMGEKPHGCSLCGKAFYKR [R7M], the protein stability index came to 2.72.

For EHERAHEGEKPHGCSLCGKAFYKR [R7E], the protein stability index is 1.95.

Regarding EHERAHGGEKPHGCSLCGKAFYKR [R7G], the protein stability index was 1.61.

In the case of EHERAHYGEKPHGCSLCGKAFYKR [R7Y], the protein stability index was determined as 1.82.

Consider EHERAHIGEKPHGCSLCGKAFYKR [R7I], for which the protein stability index stood at 1.69.

As for EHERAHQGEKPHGCSLCGKAFYKR [R7Q], the protein stability index worked out at 2.02.

Consider EHERAHRGEKVHGCSLCGKAFYKR [P11V], for which the protein stability index was 1.79.

For EHERAHRGEKEHGCSLCGKAFYKR [P11E], the protein stability index was 3.19.

For EHERAHRGEKCHGCSLCGKAFYKR [P11C], the protein stability index was determined as 2.51.

Consider EHERAHRGEKTHGCSLCGKAFYKR [P11T], for which the protein stability index came to 2.54.

In the case of EHERAHRGEKRHGCSLCGKAFYKR [P11R], the protein stability index was found to be 1.45.

As for EHERAHRGEKHHGCSLCGKAFYKR [P11H], the protein stability index came out at 2.41.

As for EHERAHRGEKNHGCSLCGKAFYKR [P11N], the protein stability index was 2.33.

Take EHERAHRGEKWHGCSLCGKAFYKR [P11W]: the protein stability index was determined as 1.9.

Turning to EHERAHRGEKAHGCSLCGKAFYKR [P11A], the protein stability index came out at 2.08.

Regarding EHERAHRGEKYHGCSLCGKAFYKR [P11Y], the protein stability index was 2.01.

On to EHERAHRGEKGHGCSLCGKAFYKR [P11G], for which the protein stability index was determined as 1.55.

Turning to EHERAHRGEKMHGCSLCGKAFYKR [P11M], the protein stability index worked out at 2.31.

Turning to EHERAHRGENPHGCSLCGKAFYKR [K10N], the protein stability index was 1.19.

Consider EHERAHRGERPHGCSLCGKAFYKR [K10R], for which the protein stability index stood at 1.01.

Take EHERAHRGEYPHGCSLCGKAFYKR [K10Y]: the protein stability index amounted to 1.7.

As for EHERAHRGEFPHGCSLCGKAFYKR [K10F], the protein stability index was 2.98.

Consider EHERAHRGEQPHGCSLCGKAFYKR [K10Q], for which the protein stability index worked out at 3.07.

For the variant EHERAHRGESPHGCSLCGKAFYKR [K10S], the protein stability index worked out at 1.66.

Consider EHERAHRGEMPHGCSLCGKAFYKR [K10M], for which the protein stability index was determined as 2.28.

For EHERAHRGEIPHGCSLCGKAFYKR [K10I], the protein stability index came out at 1.69.

For EHERAHRGETPHGCSLCGKAFYKR [K10T], the protein stability index is 3.02.

Take EHERAHRGEEPHGCSLCGKAFYKR [K10E]: the protein stability index is 2.87.

For EHERAHRGEDPHGCSLCGKAFYKR [K10D], the protein stability index was 2.27.

For the variant EHERAHRGEAPHGCSLCGKAFYKR [K10A], the protein stability index came to 2.12.

For EHERAHRGEWPHGCSLCGKAFYKR [K10W], the protein stability index stood at 1.67.

Regarding EHERAHRGEVPHGCSLCGKAFYKR [K10V], the protein stability index is 1.76.

With EHERAIRGEKPHGCSLCGKAFYKR [H6I], the protein stability index amounted to 1.54.

With EHERAKRGEKPHGCSLCGKAFYKR [H6K], the protein stability index amounted to 1.04.

Regarding EHERALRGEKPHGCSLCGKAFYKR [H6L], the protein stability index came out at 1.61.

With EHERAMRGEKPHGCSLCGKAFYKR [H6M], the protein stability index stood at 2.27.

Regarding EHERAFRGEKPHGCSLCGKAFYKR [H6F], the protein stability index came out at 2.04.

In the case of EHERADRGEKPHGCSLCGKAFYKR [H6D], the protein stability index worked out at 2.01.

EHERAERGEKPHGCSLCGKAFYKR [H6E]: the protein stability index was 1.06.

Turning to EHERAGRGEKPHGCSLCGKAFYKR [H6G], the protein stability index amounted to 1.21.

As for EHERAVRGEKPHGCSLCGKAFYKR [H6V], the protein stability index was determined as 1.58.

On to EHERANRGEKPHGCSLCGKAFYKR [H6N], for which the protein stability index stood at 2.06.

In the case of EHERAWRGEKPHGCSLCGKAFYKR [H6W], the protein stability index turned out to be 1.78.

Consider EHERAYRGEKPHGCSLCGKAFYKR [H6Y], for which the protein stability index stood at 1.61.

Consider EHERAQRGEKPHGCSLCGKAFYKR [H6Q], for which the protein stability index turned out to be 1.31.

Take EHERAHRGSKPHGCSLCGKAFYKR [E9S]: the protein stability index is 1.72.

For the variant EHERAHRGVKPHGCSLCGKAFYKR [E9V], the protein stability index was 1.42.

Consider EHERAHRGAKPHGCSLCGKAFYKR [E9A], for which the protein stability index stood at 2.28.

In the case of EHERAHRGCKPHGCSLCGKAFYKR [E9C], the protein stability index was 3.6.

Take EHERAHRGFKPHGCSLCGKAFYKR [E9F]: the protein stability index was 2.21.

Take EHERAHRGNKPHGCSLCGKAFYKR [E9N]: the protein stability index was found to be 1.85.

On to EHERAHRGWKPHGCSLCGKAFYKR [E9W], for which the protein stability index was found to be 1.59.
